Reference: patent US20190248888A1, “METHODS OF LOWERING BLOOD GLUCOSE LEVELS” (Regeneron Pharmaceuticals, Inc., priority 2016, published 2019)

System: pancreatic islets
Assay: Ki67 staining of cell proliferation in pancreatic islets
Format: in vivo, mouse
Excerpt: Ki67 staining was used to detect cell proliferation in pancreatic islets from GCGR-antibody treated mice. Cell proliferation was negligible in islets from control antibody treated mice and in non-Gcg(+) islet cells from GCGR-antibody treated mice (FIG. 3A). However, Ki67 staining was detected in GCG(+) cells from the GCGR-antibody treated mice (FIG. 3A).

B1: α-GCGR: potent monoclonal GCGR blocking antibody, HCVR/LCVR SEQ ID NOs: 86/88 (antibody, V domains shown)
VH: EVQLVESGGGLVQPGGSLRLSCAASGFTFSNYLMNWVRQAPGKGLEWLANIQEDGIEKYYVDSVKGRFTISRDNAKNSLYLQMNSLRAEDTAVYYCAREPSHYDILTGYDYYYGMDVWGQGTTVTVS
VL: DIQMTQSPSSLSASVGDRVTITCRASQGIRNDLGWYQQKPGKAPKRLIYAASSLQSGVPSRFSGSGSGTEFILTVSSLQPEDFATYYCLQYNSNPFTFGPGTKVDIK
GCGR-antibody treated mice, 11 days
  proliferation rate in Slc38a5(+) relative to Slc38a5(−) α-cells: 4 times
Mice treated 11 days
  Ki67 staining in GCG(+) cells: detected
